In patent US10233219 (TUFTS MEDICAL CENTER, dated 2019):
Values belong to the binder of their own block, whether it stands above or below them. Non-standard residues stand in square brackets, D forms with d. No end group written: not given here. *: point of attachment. PEG8 = NCCOCCOCCOCCOCCOCCOCCOCCOCCC(=O)O; Palmitoyl = CCCCCCCCCCCCCCCC(=O)*; Tic = O=C(O)[C@@H]1Cc2ccccc2CN1

Legend:
Assay in all cases: cell-based or functional assay
[1] = target: T1, mouse CMKLR1 (chemerin receptor) (mouse, UniProt P97468 1-371)
T1 sequence (looked up): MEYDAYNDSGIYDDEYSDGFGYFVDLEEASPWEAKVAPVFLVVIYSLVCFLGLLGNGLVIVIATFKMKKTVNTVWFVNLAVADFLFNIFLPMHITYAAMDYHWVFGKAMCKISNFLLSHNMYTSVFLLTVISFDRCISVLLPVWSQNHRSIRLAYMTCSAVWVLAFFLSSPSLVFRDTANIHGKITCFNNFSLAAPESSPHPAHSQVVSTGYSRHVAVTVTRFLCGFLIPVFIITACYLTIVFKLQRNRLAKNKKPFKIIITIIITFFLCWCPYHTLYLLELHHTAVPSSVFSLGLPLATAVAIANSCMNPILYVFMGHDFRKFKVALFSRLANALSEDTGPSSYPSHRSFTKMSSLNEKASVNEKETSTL

[2] = target: T2, human CMKLR1 (chemerin receptor) (human, UniProt Q99788 1-373)
T2 sequence (looked up): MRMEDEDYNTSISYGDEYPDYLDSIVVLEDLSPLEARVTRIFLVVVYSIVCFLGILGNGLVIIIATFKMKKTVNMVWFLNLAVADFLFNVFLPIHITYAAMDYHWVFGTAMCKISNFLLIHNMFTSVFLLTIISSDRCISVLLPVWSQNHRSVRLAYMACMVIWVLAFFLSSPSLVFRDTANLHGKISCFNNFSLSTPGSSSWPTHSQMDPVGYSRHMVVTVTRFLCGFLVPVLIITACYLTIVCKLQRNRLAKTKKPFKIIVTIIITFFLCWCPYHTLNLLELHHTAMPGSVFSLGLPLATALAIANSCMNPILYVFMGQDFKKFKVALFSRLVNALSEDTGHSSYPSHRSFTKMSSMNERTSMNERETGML

neurokinin 1 receptor = neurokinin 1 receptor (human, UniProt P25103 1-407)
Sequence of neurokinin 1 receptor (P25103 whole entry): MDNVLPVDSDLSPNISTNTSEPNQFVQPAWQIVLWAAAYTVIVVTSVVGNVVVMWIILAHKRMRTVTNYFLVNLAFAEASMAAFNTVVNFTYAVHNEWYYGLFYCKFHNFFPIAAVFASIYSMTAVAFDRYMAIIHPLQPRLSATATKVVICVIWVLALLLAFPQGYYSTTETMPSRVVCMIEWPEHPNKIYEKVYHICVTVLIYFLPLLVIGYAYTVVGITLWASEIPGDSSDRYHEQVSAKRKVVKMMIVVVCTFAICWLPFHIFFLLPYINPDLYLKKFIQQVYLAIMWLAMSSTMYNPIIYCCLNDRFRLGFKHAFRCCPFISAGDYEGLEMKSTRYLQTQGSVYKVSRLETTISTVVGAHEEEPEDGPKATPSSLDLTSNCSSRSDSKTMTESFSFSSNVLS

EC50 [1]: 11.9 nM
pEC50 [1]: 7.92
EC50 [2]: 60.6 nM
pEC50 [2]: 7.21
Binder: H-[dY]FLPSQF[dA][Tic]S (also: D-Ser, which S not given here) [s-Stable Chem (soluble stable chemerin peptide)]

EC50 [1]: 2 nM
EC50 (nM), + wash [1]: 10.4 nM
pEC50 [1]: 8.7
pEC50, + wash [1]: 7.96
EC50 [2]: 2.6 nM
EC50 (nM), + wash [2]: 27.1 nM
pEC50 [2]: 8.59
pEC50, + wash [2]: 7.6
Binder: {Palmitoyl-PEG8}-GG[dY]FLPSQF[dA][Tic]S (also: D-Ser, which S not given here) [l-Stable Chem (lipidated stable chemerin peptide)]

EC50 [1]: 13.7 nM
pEC50 [1]: 8.01
B1: s-Chem 21-157 (soluble recombinant human chemerin corresponding to amino acids 21-157) (ligand)
chain: ELTEAQRRGLQVALEEFHKHPPVQWAFQETSVESAVDTPFPAGIFVRLEFKLQQTSCRKRDWKKPECKVRPNGRKRKCLACIKLGSEDKVLGRLVHCPIETQVLREAEEHQETQCLRVQRAGEDPHSFYFPGQFAFS

EC50 (neurokinin 1 receptor): 6.1 nM
B2: l-SubP-COOH (lipidated Substance P with a C-terminal free acid) (peptide)
peptide: {Palmitoyl-PEG8}-KGGRPKPQQFFGLM-OH
SMILES: CCCCCCCCCCCCCCCC(=O)NCCOCCOCCOCCOCCOCCOCCOCCOCCC(=O)N[C@@H](CCCCN)C(=O)NCC(=O)NCC(=O)N[C@@H](CCCNC(=N)N)C(=O)N1CCC[C@H]1C(=O)N[C@@H](CCCCN)C(=O)N1CCC[C@H]1C(=O)N[C@@H](CCC(N)=O)C(=O)N[C@@H](CCC(N)=O)C(=O)N[C@@H](Cc1ccccc1)C(=O)N[C@@H](Cc1ccccc1)C(=O)NCC(=O)N[C@@H](CC(C)C)C(=O)N[C@@H](CCSC)C(=O)O
